Experimental data: PMC10959955 (2024)

target: nucleosome reconstituted with human core histones and Widom 601 DNA (human, UniProt P04908 2-130; P06899 1-126; P68431 1-136; P62805 2-103); test: MST

Binder	Kd [nM]
His6-tagged RING domain heterodimer, GA + TT mutant (GST-RING^A T948G^A-T952A^A with His6-Twin-Strep-Rad6A-RING^B G974T^B-A978T^B) (complex, RED-Tris-NTA label on the His6 tag) chain 1: PDNVPKCDEILMEEIKDYKARLTCPCCNMRKKDAVLTKCFHVFCFECVKGRYDARQRKCPKCNAAFGANDFHRIYIG chain 2: MSTPARRRLMRDFKRLQEDPPAGVSGAPSENNIMVWNAVIFGPEGTPFEDGTFKLTIEFTEEYPNKPPTVRFVSKMFHPNVYADGSICLDILQNRWSPTYDVSSILTSIQSLLDEPNPNSPANSQAAQLYQENKREYEKRVSAIVEQSWRDCVEVYADADEILQEEIKEYKARLTCPCCNTRKKDAVLTKCFHVFCFECVRTRYETRQRKCPKCNAAFGAHDFHRIYIS	34
His6-tagged RING domain heterodimer, TT mutant (GST-RING^A with His6-Twin-Strep-Rad6A-RING^B G974T^B-A978T^B) (complex, RED-Tris-NTA label on the His6 tag) chain 1: PDNVPKCDEILMEEIKDYKARLTCPCCNMRKKDAVLTKCFHVFCFECVKTRYDTRQRKCPKCNAAFGANDFHRIYIG chain 2: MSTPARRRLMRDFKRLQEDPPAGVSGAPSENNIMVWNAVIFGPEGTPFEDGTFKLTIEFTEEYPNKPPTVRFVSKMFHPNVYADGSICLDILQNRWSPTYDVSSILTSIQSLLDEPNPNSPANSQAAQLYQENKREYEKRVSAIVEQSWRDCVEVYADADEILQEEIKEYKARLTCPCCNTRKKDAVLTKCFHVFCFECVRTRYETRQRKCPKCNAAFGAHDFHRIYIS	7.3

The remaining binders from weak to strong by Kd, led by results:

Kd [nM]	Binder
11.8	His6-tagged RING domain heterodimer, GA mutant (GST-RING^A T948G^A-T952A^A with His6-Twin-Strep-Rad6A-RING^B) (complex, RED-Tris-NTA label on the His6 tag) chain 1: PDNVPKCDEILMEEIKDYKARLTCPCCNMRKKDAVLTKCFHVFCFECVKGRYDARQRKCPKCNAAFGANDFHRIYIG chain 2: MSTPARRRLMRDFKRLQEDPPAGVSGAPSENNIMVWNAVIFGPEGTPFEDGTFKLTIEFTEEYPNKPPTVRFVSKMFHPNVYADGSICLDILQNRWSPTYDVSSILTSIQSLLDEPNPNSPANSQAAQLYQENKREYEKRVSAIVEQSWRDCVEVYADADEILQEEIKEYKARLTCPCCNTRKKDAVLTKCFHVFCFECVRGRYEARQRKCPKCNAAFGAHDFHRIYIS
7.8	His6-tagged RING domain heterodimer, wild type (GST-RING^A with His6-Twin-Strep-Rad6A-RING^B) (complex, RED-Tris-NTA label on the His6 tag) chain 1: PDNVPKCDEILMEEIKDYKARLTCPCCNMRKKDAVLTKCFHVFCFECVKTRYDTRQRKCPKCNAAFGANDFHRIYIG chain 2: MSTPARRRLMRDFKRLQEDPPAGVSGAPSENNIMVWNAVIFGPEGTPFEDGTFKLTIEFTEEYPNKPPTVRFVSKMFHPNVYADGSICLDILQNRWSPTYDVSSILTSIQSLLDEPNPNSPANSQAAQLYQENKREYEKRVSAIVEQSWRDCVEVYADADEILQEEIKEYKARLTCPCCNTRKKDAVLTKCFHVFCFECVRGRYEARQRKCPKCNAAFGAHDFHRIYIS
